Reference: the supplement of paper PMC10567573

B1: CLCN6 (parent)
chain: VGEIVGIITRHNLTYEFLQARLRQ
B2: C20orf112 (parent)
chain: YANGGLNYSYRGYGALSSNLQPPA

Variants of: B1
Experiment: protein stability index of a GFP-peptide fusion (GPS, HEK-293T) (PSI 1-6); higher = more stable
Settings: c terminus: a fixed tail appended
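Note: lentivirally expressed fusions sorted by FACS into six bins by GFP to DsRed ratio, PSI derived from sequencing read proportions per bin multiplied by bin number.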

Protein stability index: each site, then its substitutions
L22: K 1.93; Q 2.07; V 3.2; Y 2.44; W 2.32
A20: L 2.08; Q 2.04; Y 1.04
H11: N 4.18
Q24: R 1.88; P 2.15; Y 2.14; E 3.09
Y15: Q 2.38; R 4.35
I8: Y 1.21
G2: L 2.48; E 1.75; W 3.19; M 1.09; P 1.86; A 3.29
I7: G 2.44; A 1.77; H 2.05
T14: Q 1.26; V 2.98; L 2.29; Y 3.07
V5: H 1.92; R 2.55; K 1.38
G6: H 2.89; P 1.7; E 4.38
L18: F 2.71; D 2.26; M 2.33
E3: D 2.05; V 2.62; T 1.74; R 2.51; A 2.59
T9: E 1.38
L13: P 1.94; N 1.08
R23: P 1.86; V 5.95; H 1.73
E16: H 2.17; W 3.79
I4: G 2.33; R 2.72; L 2.59; T 1.75
V1: G 1.27; Y 2.83; A 1.44; Q 2.08; M 2.29
R10: D 2.73
R21: W 2.19; D 2.76; Y 1.86; Q 2.57
N12: K 2.04; P 1.92; E 1.16

Variants of: B2
Experiment: as above
Settings: c terminus: a fixed tail appended

Protein stability index of substitutions, site by site:
L16: C 1.64; I 2.43; D 1.68; M 1.75; E 2.54; Y 2.05; K 1.87; A 2.11; N 2.61; R 2.3; Q 2.02; G 2.61; W 2.68
L20: G 2.28; F 1.55; D 1.36; W 1.84; M 1.52; Y 1.34; E 1.37
L6: G 1.73; R 2.1; Q 1.55; A 2.03; I 2.33; H 1.97; N 1.47; S 1.65; W 2.27
S18: H 1.8; Y 1.67; C 2.17; Q 2.6; D 1.42; L 1.85; E 1.56; N 1.57; R 2.21; M 2.06; K 1.61; T 2.05; W 2.07; F 1.72
G14: H 2.07; Y 2.91; F 2.52; M 2.18; W 3.05; N 2.87; L 3.28; E 2.45; R 2.7
N3: K 1.7; L 2.25; H 1.55; Q 1.65; V 2.08; R 2.25; T 1.65; W 1.82; I 2.11; Y 1.8; D 2.56
Y8: W 2.23; A 1.76; C 2.22; I 2.15; P 1.37; Q 1.64; T 1.84; G 2.19; E 2.13; M 1.95; N 2.22; R 2.04
A2: D 2.81; R 2.22; S 1.54; N 2.3; F 2.07; Y 2.63; T 1.99; M 1.68
N19: R 1.99; H 1.43; M 1.88; C 2.05; K 2.96; Y 1.57; G 1.42; A 1.71; S 2.44; E 1.11; F 1.53; L 2.53; W 2.61
G5: T 1.91; L 1.9; D 2.08; H 2.08; M 2.49; N 1.72; I 2.21; F 1.98; Q 1.93; P 2.02; V 2.03
Y13: S 1.96; L 2.87; N 1.84; G 1.77; K 2.12; W 2.96; H 2.01; Q 2.13; E 1.33; T 1.66; R 1.42; C 2.63; P 2.04
A24: T 2.52; L 1.62; C 2.37; R 2.48; D 1.86; N 1.9; G 3.04; F 1.78; S 1.82; P 2.73; M 1.35; Q 2.27
P23: C 1.92; F 2.52; G 2.6; I 2.09; W 2.61; L 1.54; A 1.81; S 1.65; Q 1.77; M 2.3; K 1.97; T 1.6
G4: L 2.01; C 1.91; D 2.05; V 2.32; Y 2.38; Q 2.06; R 1.38; E 2.01; I 1.93; N 2.02; H 1.6; K 2.4; P 2.18
Y10: C 2.23; S 2.48; H 2.15; K 1.73; L 2.3; F 1.5; V 1.89; A 1.9; G 1.5; W 2.66
A15: G 1.87; W 1.88; D 2.07; S 2.22; P 2.52; V 1.85; N 2.4; Y 2.97; H 2.62; T 2.75; I 2.42; E 2.37; Q 1.77; M 1.49
Y1: K 2.96; I 2.45; M 2.87; N 3.08; G 3.16; D 2.9; T 2.83; H 2.64; A 3.08; V 2.2; E 3.15; C 1.96
S9: R 1.67; W 2.46; F 2.99; D 1.97; Y 1.59; K 1.57; M 2.77; Q 1.46; H 1.82; N 1.89; T 1.82; C 1.7; G 1.88
S17: P 1.9; W 1.85; L 1.39; A 1.58; R 2.56; M 2.17; E 2.23; G 3.12; D 1.87; H 1.9; F 2.49; Y 2.53
P22: E 2.41; S 1.62; F 3.69; K 2.66; Q 2; A 1.5; R 1.76; I 2.35; G 2.65; Y 3.09
R11: F 2.31; W 2.44; N 2.27; L 2.31; Q 2.32; A 1.72; S 2.19; P 2.06
N7: W 2.86; P 2.47; D 1.36; K 1.81; M 2.76; T 1.2; L 3.75; G 3.08; I 2.27; C 2.1
G12: N 1.93; D 1.42; E 1.63; H 2.55; P 1.91; A 2.46; C 2.85; R 1.08; S 1.91; Q 1.86; F 1.67; K 1.97
Q21: D 2.22; G 1.21; S 2.5; M 1.71; P 2.28; A 1.66; C 1.74; E 2.16
